Measured values taken from the RNAGym collection of RNA variant scans (doi:10.1073/pnas.2313332121).

B1: TPR t1 (parent)
chain: GACCAAUCUGCCCUCAGAGCUCGAGAACAUCUUCGGAUGCAGAGGAGGCAGGCUUCGGUGGCGCGAUAGCGCCAACGUCCUCAACCUCCAAUGCAUCCCACCACAUGAUGAUGCCUGAAGAGCCUUGGUUUUUUG

Variants of: B1
Experiment: polymerase ribozyme fitness, log enrichment relative to wild type (log ratio); higher = more active; in vitro selection for triplet polymerase activity
Method in brief: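 Mutant libraries of both subunits of a heterodimeric triplet polymerase ribozyme were PCR-built, transcribed, and selected once in triplicate, with frozen incubation at −7 °C and capture of gel-excised extended constructs on streptavidin beads before RT-PCR. Illumina sequencing of input and output libraries was filtered to genotypes with ≥10 input reads and ≥1 read per output. Fitness is the logarithm of genotype enrichment over wild-type enrichment, using inverse-variance-weighted replicate averages. The logarithm is base 2.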

Row | Variant | polymerase ribozyme fitness (log ratio)
1 | GACCAAUCUGCCCUUAGAGCUCGAGAACAUCUUCGGAUGCUGAGGAGGCAGGCUUCGGUGGCGCGAUACCGCCAACGUCCUAAACCUCCAAUGCAUCCCACCACAUGAUGAAGCCUGAAGAGCAUUGGUUUUUUG | -3.69
2 | GACCAAUCUGCUCUCAGAGCUCGAGAACAUCUUCGGAUGCAGAGGAGGCAGGUUUCGGUGGCGCGAUAGCGCCAACGUCCUCAACCUCCAAUGCAUCCCACCACAUGAUGAUGCCUGAAGAGCUUUGGUUUUUUG | 1.56
3 | GACCAAUCUGCCCUCAGAGCUCGAGAACAUCUUCGGAUGCAGAGGAGGCAGGCUUCGGUGGCGCGAUAGGGCCAACGUCCUGAACCUCCAAUGCAUCCCACCACAUGAUGAUGCCUGAAGAGCAUUGGUUGUUUG | -3.38
4 | GACCAAUCUGCCCUCAGGGUUCGAGAACAUCUUCGGAUACAGGGGAGGAAGGCUUCGGUGGCGCGUUAGCGCCAACGGCCUCAACCUCCAAUGCAUCCCACCACAUGAUGAUGCCUGAAGAGCCUUGGUUUUUUG | -6.02
5 | GACCAAUCUGCCCUCAGAGCUCGAGAAGAUCUUCGGAUGCAGAGGAGGUAGGCUUCGGUGGCGCGAUAGCGCCAACGUCCUCAACCUCCAAAGCAUCCCACCACAUGAUAAUGCCUGAAGAGCCUUGGUUUUUUG | -5.35
6 | GACCAAUCUGCCCUCAGAGCUCGAGAACAUCUUCGGAUGCAGAGGAGGCAGGCUUCGGUGGCGCGAUAGCGCCAACGCCCUCAACCUCCAAUGCAUCCCACCACAUGAUGAUGCCUGAAGAGCCUUGAUUUUUUG | -1.95
7 | GACCAAUCUGGCCUCAGAGCUCGAGAACCUCUUCGGAUGCAGAGGAGGAAGGCUUCGGUGGCGCGAUAGCGCCAACGUCCUCAACCUCCAAUGCAUCCCACCACAUGAUGAUGCCUAAAAAGCCUUGGUUUUUUG | -3.48
8 | GACCAAUCUGGCCUCAGAGCUCGAGAACUUCUUCGGAUGCAGAGGAGGCAGGCUUCGGUGGCGCGAUAGCGCCAACGUCCUCAACCUCCAAUGCAUCCCACCACAUGAUGAUGCCUGAAGAGCCUUGGUUUUUUG | -1.95
9 | GAGCAAUCUGCCCUCAGAGCUCGAGAACAUCUUCGGAUGCAGAGGAGGCAGGCUUCGGUGGCGCGAUAGCGCCAACGUCCUCAACCUCCAAUGCAUCCCACCACAUGAUUAUGCCUGAAGAGCCUUGGUUUUUUG | -2.82
10 | GACCAAUCUGCCCUCAGAGCUCGAGAACAUCUUCGGAUGCAGAGGAGGCAGGCUUCGGUGGCGCGAUAGCGCCAACGGCCUCAACCUCCAAUGCAUCCCACCACAUGAUGAUACCUGAAGAGCCUUGGUCUUUUG | -1.64
11 | GACCAAUCUGCCCUCAGAGCUCGAGAACAUCUUCGGAUGGAGAGGUGGCAGGCUUCGGUGGCGCGAUAGCGCCAACGUCCUCAACCUCCAAUGCAUCCCACCACAUGAUGAUGCCUGAAGAGCCUUGGUUUUUUG | -2.96
12 | GACCAAUCUGCCCUCAAAGCUCGAGAACAUCUUCGGAUGCAGAGGAGGCAGGCUUCGGUGGCGCGAUAGCGCCAACGUCCUCAACCUCCAAUACAUCCCACCACAUGAUGAUGCCUGAAGCGCCUUGGUUUUUUG | -1.03
13 | GACCAAUCUGCCCUCAGAGCUCGAGAACAUCUUCGGAUGCAGAGGAGGCACGCUUCGGUGGCGCGAUAGCGCCAACGUCCUCAACCUCCAAUGCAUCCCACCACAUGAUGAUGCCUGAAGAGCCUUUGUUUUUUG | -5.2
14 | GACCAAUCUGCCCUCAGAGCUCGAGAACAUCUUCGGAUGCAGAGGAGGUAGGCUUCGGUGGCGCGAUAGCGCCAACGUCCUCAACCUCCAAGGCAUCCCACCACAUGAUGAUGCCUGAAGGGCCUUGGUUUUUUG | -1.61
15 | GACCAAUCUGCCCUCAGAACUCGAGAACAUCUUCGGAUGCAGAGGAGGCAGGCUUCGGUGGCGCGAUAGCGCCAACGGCUUCAACCUCCAAUGCAUCCCACCACAUGAUGAUGCCUGAAGAGCCUUGGUUUUUUG | -3.52
16 | GACCAAUCUGCCCUCAGAGCUCGAGAACAUCUUCGGAUGCAGAGGAGGCAGGCUUCGCUGGCGCGAUAGCGCCAACGUCAUCAACCUCCAAUGCAGCCCACCACAUGAUGAUGCCUGAAGAGCCUUGGUUUUUUG | -4.46
17 | GACCAAUCUGCCCUCAGAUCUCGAGAACAUCUUCGGAUGCAGAGGAGGCAGGGUUCGGUGGCGCGAUAGCGCAAACGUCCUCAACCUCCAAUGCAUCCCACCACAUGAUGAAGCCUGAAGAGCCUUGGUUUUUUG | -1.03
18 | GACCAAUCUGCCAUCAGAGCUCGAGAACAUCUUCGCAUGCAGAGGAGGCAGGCUUCGGUGGCGUGAUAGCGCCAACGUCUUCAACCUCCAAUGCAUCCCACCACAUGAUGAGGCCUAAAGAGCCUUGGUUUUUUG | -6.43
19 | GACCAAUCUGCCCUCAGAGCUCGAGAACAUCUUCGGAUGCAGAGGAGGCAGGCUUCGGUGGCGCGAUAGCGCCAACGUCCUCAACCUCCAAUGCAUCCCACCUCAUGAUGAUGCCUGUAGAGCCUUGGUUUUUUG | -4.32
20 | GACCAAUCUGCCCUCAGACUUCGAGAACAUCUUCGGAUGCAGAGGAGGCAGGCUUCGGUGGCGUGAUAGCGCCAACGUCCUCAACCUCCAAUGCAUCCCACCACAUGAUGAUGCCUGAAGAGCCUUGGUUUUUUG | -1.8
21 | GACCAAUCUGCCCUCAGAGCUCGAGAACAUCUUCGGAUGCAGAGGAGGAAGGCUUCGGUGCCGCGAUAGCGCCAACGUCCUCAACCUUCAAUGCAUCCCACCACAUGAUGAUGCCUAAAGAGCCUUGGUUUUUUC | -3.6
